According to the Human Domainome abundance scans (Beltran et al. 2025):
± gives the uncertainty stated by the source.

B1: Chromodomain-helicase-DNA-binding protein 4, residues 365 to 417; numbered along this chain, Q14839 (parent)
chain: YETDHQDYCEVCQQGGEIILCDTCPRAYHMVCLDPDMEKAPEGKWSCPHCEKE

Variants of: B1
Assay: abundance fitness (aPCA) (normalised: wild type 0, dead -1); higher = more abundant; growth selection in yeast, the domain comes from the species named
Conditions: Homo sapiens

Variant	abundance fitness
E51Q	-0.371 ± 0.2
E51L	-0.275 ± 0.11
E51T	-0.174 ± 0.15
E51N	-0.357 ± 0.48
E51Y	-0.221 ± 0.23
E51P	-0.007 ± 0.12
E51D	-0.111 ± 0.28
E51F	-0.392 ± 0.2
E51S	-0.127 ± 0.11
E51G	0.132 ± 0.091
K44I	-0.427 ± 0.3
K44H	-0.3 ± 0.21
K44A	-0.017 ± 0.15
K44C	-0.152 ± 0.14
K44V	-0.109 ± 0.11
K44G	0.164 ± 0.095
K44L	-0.145 ± 0.1
K44E	0.079 ± 0.14
K44N	-0.373 ± 0.29
K44M	-0.066 ± 0.12
K44P	0.062 ± 0.14
K44F	-0.028 ± 0.16
K44T	0.218 ± 0.15
K44R	0.05 ± 0.097

Variant	abundance fitness
K44W	0.098 ± 0.12
K44Y	-0.31 ± 0.18
K44Q	0.309 ± 0.13
K44S	0.102 ± 0.11
K52C	-0.105 ± 0.16
K52D	-0.39 ± 0.23
K52A	-0.233 ± 0.12
K39R	-0.082 ± 0.093
K39F	-0.472 ± 0.15
K39T	-0.217 ± 0.15
K39I	-0.125 ± 0.18
K39G	0.008 ± 0.096
K39P	-0.094 ± 0.15
K39C	-0.347 ± 0.12
K39Y	-0.077 ± 0.17
K39A	-0.06 ± 0.14
K39L	-0.132 ± 0.1
K39W	-0.172 ± 0.11
K39E	-0.077 ± 0.13
K39V	0.1 ± 0.11
K39M	0.115 ± 0.16
K39N	-0.264 ± 0.23
K39S	-0.203 ± 0.1
K39H	-0.237 ± 0.28

Variant	abundance fitness
K39Q	-0.323 ± 0.18
A40C	-0.035 ± 0.16
A40Q	-0.208 ± 0.16
A40T	-0.151 ± 0.14
A40E	-0.102 ± 0.16
A40L	0.095 ± 0.1
A40K	-0.043 ± 0.2
A40S	-0.126 ± 0.094
A40M	0.043 ± 0.14
A40V	-0.093 ± 0.094
A40Y	-0.462 ± 0.17
A40G	-0.157 ± 0.1
A40N	-0.351 ± 0.27
A40P	-0.209 ± 0.12
A40F	0.015 ± 0.18
A40D	0.016 ± 0.17
A40R	-0.178 ± 0.12
A40W	-0.135 ± 0.13
A40H	0.33 ± 0.2
A40I	0.464 ± 0.2
C50F	-0.567 ± 0.19
C50Y	-0.679 ± 0.15
C50M	-0.819 ± 0.22
C50W	-0.619 ± 0.12

Variant	abundance fitness
C50L	-0.517 ± 0.14
C50T	-0.624 ± 0.2
C50S	-0.222 ± 0.11
C50N	-0.313 ± 0.29
C50D	-0.17 ± 0.16
C50Q	-0.767 ± 0.24
C50R	-0.555 ± 0.098
C50A	-0.271 ± 0.13
C50K	-0.344 ± 0.17
C50I	-0.526 ± 0.28
C50E	-0.366 ± 0.15
L33K	-0.103 ± 0.14
L33N	-0.547 ± 0.27
L33M	-0.084 ± 0.16
L33Q	-0.114 ± 0.19
L33F	0.022 ± 0.18
L33G	-0.195 ± 0.095
L33D	-1.04 ± 0.24
L33E	-0.496 ± 0.12
L33W	0.024 ± 0.11
L33P	-0.404 ± 0.17
L33S	0.141 ± 0.1
L33T	0.162 ± 0.12
L33Y	-0.025 ± 0.16

Variant	abundance fitness
D36T	0.078 ± 0.22
D36R	-0.055 ± 0.12
D36A	-0.079 ± 0.12
D36S	0.202 ± 0.11
D36V	-0.052 ± 0.11
D36Y	-0.657 ± 0.23
D36F	-0.325 ± 0.19
D36N	0.026 ± 0.2
D36Q	-0.05 ± 0.19
D36I	-0.245 ± 0.17
D36E	0.13 ± 0.17
D36H	0.161 ± 0.23
D36W	-0.37 ± 0.14
D36P	-0.136 ± 0.13
D36K	0.06 ± 0.18
D36L	-0.5 ± 0.12
D36G	-0.079 ± 0.1
D36M	-0.185 ± 0.2
D34V	-0.094 ± 0.099
D34C	0.018 ± 0.16
D34I	-0.463 ± 0.2
D34A	-0.07 ± 0.12
D34G	0.037 ± 0.094
D34T	-0.047 ± 0.14

Variant	abundance fitness
D34W	0.009 ± 0.14
D34Y	-0.118 ± 0.15
D34Q	-0.257 ± 0.2
D34P	-0.149 ± 0.18
D34F	-0.282 ± 0.14
D34R	-0.145 ± 0.092
D34S	-0.146 ± 0.11
D34H	-0.069 ± 0.18
D34N	-0.091 ± 0.17
D34K	-0.314 ± 0.12
D34L	-0.025 ± 0.097
C47M	-0.882 ± 0.17
C47N	-0.5 ± 0.27
C47D	-0.468 ± 0.17
C47A	-0.756 ± 0.12
C47H	-0.477 ± 0.33
C47L	-0.75 ± 0.14
C47E	-0.331 ± 0.14
C47F	-0.565 ± 0.24
C47Y	-0.811 ± 0.22
C47G	-0.867 ± 0.11
C47Q	-0.833 ± 0.21
C47R	-0.848 ± 0.11
C47K	-0.81 ± 0.2

Variant	abundance fitness
C47W	-1.09 ± 0.16
C47V	-1.11 ± 0.16
C47T	-0.43 ± 0.15
C47S	-0.99 ± 0.14
C47P	-0.657 ± 0.17
G43W	-0.164 ± 0.11
G43K	-0.012 ± 0.2
G43L	-0.232 ± 0.099
G43A	0.061 ± 0.12
G43P	-0.209 ± 0.15
G43V	-0.375 ± 0.12
G43I	-0.382 ± 0.22
G43E	0.179 ± 0.15
G43M	-0.151 ± 0.14
G43S	-0.099 ± 0.12
G43H	-0.505 ± 0.26
G43R	-0.09 ± 0.086
G43C	-0.217 ± 0.15
G43T	-0.272 ± 0.15
G43F	-0.35 ± 0.18
G43N	-0.076 ± 0.21
G43Q	-0.078 ± 0.15
G43D	-0.164 ± 0.19
